In general, EC50 refers to the concentration giving half of the maximal effect. Lower therefore signals greater potency. A word on the Kd: it is the free concentration of one partner at which half of the binding sites on the other are occupied at equilibrium, for simple one-to-one binding. Read a high Kd as lower affinity. One may read the koff as a measure of how fast the partners let go of each other. Low values mean a long-lived complex, high ones a short-lived complex. By kon is commonly meant the second-order rate constant of association.

The target of assay [1] is T1, human IL-23 (IL-23-His-Biotin) (human, UniProt Q9NPF7 20-189; P29460 23-328, biotin label, site not stated).
T1 construct: Akesobio lot 20161209; His-tagged and biotinylated
T1 sequence (looked up) 1: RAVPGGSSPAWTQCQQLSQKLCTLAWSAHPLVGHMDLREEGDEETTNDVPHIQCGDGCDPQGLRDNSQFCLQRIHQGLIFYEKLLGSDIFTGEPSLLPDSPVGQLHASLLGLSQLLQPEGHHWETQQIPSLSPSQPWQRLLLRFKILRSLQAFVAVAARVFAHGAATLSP
T1 sequence (looked up) 2: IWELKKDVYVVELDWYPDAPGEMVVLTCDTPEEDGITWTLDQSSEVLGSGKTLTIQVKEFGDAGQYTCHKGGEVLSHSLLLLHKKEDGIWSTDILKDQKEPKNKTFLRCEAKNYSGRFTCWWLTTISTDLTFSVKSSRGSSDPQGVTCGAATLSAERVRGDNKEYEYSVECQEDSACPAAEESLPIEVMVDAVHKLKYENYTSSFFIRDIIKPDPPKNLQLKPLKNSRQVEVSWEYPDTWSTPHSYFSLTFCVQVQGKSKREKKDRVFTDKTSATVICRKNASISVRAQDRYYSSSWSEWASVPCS
The assay is described as follows: FACS competition, IL-23-His-Biotin 2 µg/mL on 293T-IL-12Rβ1&IL-23R cells; antibody 0.04 µg/mL. Here is the method:
(§1) 200 μL of 1% PBSA was added into each sample, and the mixture was centrifuged at 700×g for 5 min to discard the supernatant. According to experiment design, correspondingly diluted antibody (highest final concentration of 30 μg/mL, 3-fold dilution, 8 concentrations in total) and human IL-23 (IL-23-His-Biotin, Akesobio, 20161209) (final concentration of 2 μg/mL) were mixed at a ratio of 1:1, and a blank control was set. The mixture of antibody and human IL23 was incubated on ice for 30 min and then added to the cell precipitate at 100 μL/sample. The resulting mixture was well mixed and incubated on ice for 60 min. 200 μL of 1% PBSA was added, and the mixture was centrifuged at 700×g for 5 min to discard the supernatant, and then washed twice. FITC Steptavidin (Biolegend, Cat. No.: 405202) was diluted at a ratio of 1:500 and added to each tube at 100 μL. The mixture was well mixed and incubated on ice for 40 min in the absence of light. 200 μL of 1% PBSA was added, and the mixture was centrifuged at 700×g for 5 min to discard the supernatant, and then washed twice. 1% PBSA was added at 200 μL/tube, and the cells were resuspended and transferred to a flow cytometry tube for testing.

The next assay addresses T2, Human IL12 (His Tag) (human, UniProt P29459 23-219; P29460 23-328).
T2 construct: Bought His-tagged heterodimer
T2 sequence (looked up) 1: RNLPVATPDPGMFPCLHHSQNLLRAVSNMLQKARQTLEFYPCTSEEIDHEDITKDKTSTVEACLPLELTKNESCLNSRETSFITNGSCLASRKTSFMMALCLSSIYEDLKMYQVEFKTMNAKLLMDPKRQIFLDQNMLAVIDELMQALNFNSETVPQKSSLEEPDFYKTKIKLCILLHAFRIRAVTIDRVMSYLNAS
T2 sequence (looked up) 2: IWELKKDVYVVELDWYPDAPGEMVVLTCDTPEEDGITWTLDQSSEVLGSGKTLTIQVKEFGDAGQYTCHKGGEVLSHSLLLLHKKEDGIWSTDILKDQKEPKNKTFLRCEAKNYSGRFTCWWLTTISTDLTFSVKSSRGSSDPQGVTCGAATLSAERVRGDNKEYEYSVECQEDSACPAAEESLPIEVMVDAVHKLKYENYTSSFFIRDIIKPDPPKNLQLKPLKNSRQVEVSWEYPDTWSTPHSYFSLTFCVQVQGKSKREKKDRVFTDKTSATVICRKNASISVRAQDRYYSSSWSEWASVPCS
Nature of the assay: FACS competition, IL-12-His 20 nM on 293T-IL-12Rβ1&IL-23R cells. Here is the method:
200 μL of 1% PBSA was added into each sample, and the mixture was centrifuged at 700×g for 5 min to discard the supernatant. According to experiment design, correspondingly diluted antibody (highest final concentration of 30 μg/mL, 3-fold dilution, 8 concentrations in total) and human IL-12 (Sino Biological, Cat. No.: CT-050-H08H-20) (final concentration of 20 nM) were mixed at a ratio of 1:1, and a blank control was set. The mixture of antibody and human IL12 was incubated on ice for 30 min and then added to the cell precipitate at 100 μL/sample. The resulting mixture was well mixed and incubated on ice for 60 min 200 μL of 1% PBSA was added, and the mixture was centrifuged at 700×g for 5 min to discard the supernatant, and then washed twice. Alexa Fluor® 488 anti-His tag antibody (Biolegend, Cat. No.: 652509) was diluted at a ratio of 1:400 and added to each tube at 100 μL. The mixture was well mixed and incubated on ice for 40 min in the absence of light. 200 μL of 1% PBSA was added, and the mixture was centrifuged at 700×g for 5 min to discard the supernatant, and then washed twice. 1% PBSA was added at 200 μL/tube, and the cells were resuspended and transferred to a flow cytometry tube for testing.

A further assay has as its target T3, human p40-His (human, UniProt P29460 23-328).
T3 construct: Made by Akeso Biopharma; construct limits and tag not described; also called human IL-12/IL-23 p40 protein domain; human IL-12/IL-23 p40; not shown: His tag
T3 sequence (looked up): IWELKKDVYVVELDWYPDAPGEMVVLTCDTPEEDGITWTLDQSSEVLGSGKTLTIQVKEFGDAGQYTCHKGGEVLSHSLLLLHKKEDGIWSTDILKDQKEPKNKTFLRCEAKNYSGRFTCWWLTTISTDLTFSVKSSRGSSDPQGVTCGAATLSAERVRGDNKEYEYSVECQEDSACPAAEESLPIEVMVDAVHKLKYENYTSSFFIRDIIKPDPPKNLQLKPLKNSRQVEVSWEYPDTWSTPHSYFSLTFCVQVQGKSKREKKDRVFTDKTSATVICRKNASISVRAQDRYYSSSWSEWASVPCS
The assay is described as follows: BLI (Fortebio), p40-His on HIS1K sensor, antibody 5-0.31 nM, 37 °C, 1:1 fit. Here is the method:
The sample dilution buffer for H5L9, H5L10, H5L11, H5L12, H5L14, H8L15, Ab123FR1 and ustekinumab was PBS (0.02% Tween-20, 0.1% BSA, pH 7.4). p40-His was immobilized on a HIS1K (manufacturer: Fortebio, Cat. No.: 18-5120) sensor at a concentration of 1 μg/mL for 40 s. The sensor was equilibrated in a buffer for 60 s, and the p40-His immobilized on the sensor bound to the antibody at a concentration of 5-0.31 nM (two-fold dilution) for 120 s, and then the protein dissociated in the buffer for 300 s. The sensor was refreshed with 10 mM glycine solution (pH=1.5). The detection temperature was 37° C., the detection frequency was 0.3 Hz, and the sample plate shaking rate was 500 rpm. The data were analyzed by 1:1 model fitting to obtain affinity constants.

For assay [2], the target named is T1, human IL-23 (IL-23-His-Biotin). Nature of the assay: FACS competition, IL-23-His-Biotin 2 µg/mL on 293T-IL-12Rβ1&IL-23R cells; antibody 30 µg/mL. Here is the method: as §1

B1: H5L10 (antibody, human IgG1, kappa, V domains shown)
VH: EVQLVQSGAEVKKPGESLKISCQSSGYSFTTYWIGWVRQMPGQGLEWIGIMSPVDSDIRYNPMFRGQVTMSVDKSSSTAYLQWSSLKASDTAMYYCARRRPGQGYFDFWGQGTMVTVSS
VL: EIVLTQSPATLSASPGERATISCRASQSVGSWLAWYQQKPGQAPRSLIYAASNLQSGIPARFSGSGSGTDFTLTISSLEPEDFAVYYCQQYNIYPYTFGQGTRLEIKR
notes: human IgG1 / kappa constant regions; also called humanized antibody H5L10
In assay [1], B1 displayed an MFI of 230 MFI. The molecule further registered an EC50 with Human IL12 (His Tag) of 0.331 µg/mL. In the assay with human p40-His, the Kd was 121 pM, the “S E (kon)” value turned out to be 364000 M⁻¹ s⁻¹, the “S E(kdis)” value came out at 0.000222 s⁻¹ and the koff was 0.000435 s⁻¹. For the same molecule, the kon with human p40-His amounted to 3.58e+06 M⁻¹ s⁻¹. In assay [2], this molecule yielded an MFI of 11.9 MFI.

B2: H5L9 (antibody, human IgG1, kappa, V domains shown)
VH: EVQLVQSGAEVKKPGESLKISCQSSGYSFTTYWIGWVRQMPGQGLEWIGIMSPVDSDIRYNPMFRGQVTMSVDKSSSTAYLQWSSLKASDTAMYYCARRRPGQGYFDFWGQGTMVTVSS
VL: DIQMTQSPSSLSASVGDRVTITCKASQNVGSWLAWYQQKPGKAPKSLIYSASSRQSGVPSRFSGSGSGTDFTLTISSLQPEDFATYYCQQYDIYPFTFGQGTKLEIKR
notes: human IgG1 (P01857) / kappa (P01834) constant regions; also called humanized antibody H5L9
In assay [1], B2 yielded an MFI of 221 MFI. In addition, in the assay with human p40-His, the Kd came out at 849 pM, the “S E (kon)” value was 850000 M⁻¹ s⁻¹, the “S E(kdis)” value came to 0.000307 s⁻¹ and the off-rate constant (koff) came to 0.0092 s⁻¹. The molecule further gave a kon with human p40-His of 1.08e+07 M⁻¹ s⁻¹. The MFI in assay [2] was determined as 104 MFI.

B3: H5L11 (antibody, human IgG1, kappa, V domains shown)
VH: EVQLVQSGAEVKKPGESLKISCQSSGYSFTTYWIGWVRQMPGQGLEWIGIMSPVDSDIRYNPMFRGQVTMSVDKSSSTAYLQWSSLKASDTAMYYCARRRPGQGYFDFWGQGTMVTVSS
VL: EIVLTQSPATLSASPGERATISCRASQSVSSWLAWYQQKPGQAPRSLIYSASNLQSGIPARFSGSGSGTDFTLTISSLEPEDFAVYYCQQYNIYPYTFGQGTRLEIKR
notes: human IgG1 / kappa constant regions; also called humanized antibody H5L11
In assay [1], B3 came in with an MFI of 224 MFI. Also, in the assay with Human IL12 (His Tag), the EC50 was 0.414 µg/mL. In the assay with human p40-His, binding was characterised by a dissociation constant (Kd) of 136 pM, the “S E (kon)” value worked out at 232000 M⁻¹ s⁻¹, the “S E(kdis)” value amounted to 0.000144 s⁻¹ and the koff stood at 0.000428 s⁻¹. This molecule also yielded a kon in the assay with human p40-His of 3.15e+06 M⁻¹ s⁻¹. In assay [2], this molecule came in with an MFI of 12.9 MFI.

B4: H5L12 (antibody, human IgG1, kappa, V domains shown)
VH: EVQLVQSGAEVKKPGESLKISCQSSGYSFTTYWIGWVRQMPGQGLEWIGIMSPVDSDIRYNPMFRGQVTMSVDKSSSTAYLQWSSLKASDTAMYYCARRRPGQGYFDFWGQGTMVTVSS
VL: EIVLTQSPATLSASPGERATISCRASQSVSSWLAWYQQKPGQAPRSLIYAASNRQSGIPARFSGSGSGTDFTLTISSLEPEDFAVYYCQQYNIYPYTFGQGTRLEIKR
notes: human IgG1 / kappa constant regions; also called humanized antibody H5L12
In turn, B4 returned an MFI in assay [1] of 234 MFI. Also, a half-maximal effect with Human IL12 (His Tag) (EC50) was put at 0.317 µg/mL. For the same molecule, in the assay with human p40-His, the Kd came out at 90.5 pM, the “S E (kon)” value was determined as 212000 M⁻¹ s⁻¹, the “S E(kdis)” value came to 0.000124 s⁻¹ and the koff is 0.000348 s⁻¹. This molecule also registered a kon in the assay with human p40-His of 3.84e+06 M⁻¹ s⁻¹. Further, the MFI in assay [2] was determined as 12.3 MFI.

B5: H5L14 (antibody, human IgG1, kappa, V domains shown)
VH: EVQLVQSGAEVKKPGESLKISCQSSGYSFTTYWIGWVRQMPGQGLEWIGIMSPVDSDIRYNPMFRGQVTMSVDKSSSTAYLQWSSLKASDTAMYYCARRRPGQGYFDFWGQGTMVTVSS
VL: EIVLTQSPATLSASPGERATISCRASQSVSSWLAWYQQKPGQAPRSLIYAASNLQSGIPARFSGSGSGTDFTLTISSLEPEDFAVYYCQQYNIYPFTFGQGTRLEIKR
notes: human IgG1 / kappa constant regions; also called humanized antibody H5L14
B5: in assay [1], the MFI was 216 MFI. Also, it took 0.532 µg/mL to reach a half-maximal effect in the assay with Human IL12 (His Tag) (EC50). Also, in the assay with human p40-His, the Kd worked out at 62 pM, the “S E (kon)” value worked out at 236000 M⁻¹ s⁻¹, the “S E(kdis)” value was 0.000158 s⁻¹ and the koff was 0.000182 s⁻¹. In the assay with human p40-His, the kon is 2.94e+06 M⁻¹ s⁻¹. This molecule gave an MFI in assay [2] of 14.1 MFI.

B6: ustekinumab (antibody, V domains shown)
VH: EVQLVQSGAEVKKPGESLKISCKGSGYSFTTYWLGWVRQMPGKGLDWIGIMSPVDSDIRYSPSFQGQVTMSVDKSITTAYLQWNSLKASDTAMYYCARRRPGQGYFDFWGQGTLVTVSS
VL: DIQMTQSPSSLSASVGDRVTITCRASQGISSWLAWYQQKPEKAPKSLIYAASSLQSGVPSRFSGSGSGTDFTLTISSLQPEDFATYYCQQYNIYPYTFGQGTKLEIK
On to B6, for which the MFI in assay [1] turned out to be 216 MFI. This molecule gave an EC50 with Human IL12 (His Tag) of 0.377 µg/mL. For the same molecule, in the assay with human p40-His, the Kd was 86.4 pM, the “S E (kon)” value came to 251000 M⁻¹ s⁻¹, the “S E(kdis)” value was 0.000181 s⁻¹ and the koff was determined as 0.000172 s⁻¹. Further, the kon with human p40-His came out at 1.99e+06 M⁻¹ s⁻¹. This molecule also had an MFI in assay [2] of 9.64 MFI.
